Results taken from publication PMC9753469.

Biological target: MBP-KRAB (ZNF93 KRAB E35R), P35789
Test: SPR
Conditions: chain shown with the change; MBP-KRAB immobilized on the chip; KAP1 RBCC as mobile phase

Chain of MBP-KRAB (ZNF93 KRAB E35R), P35789 (P35789 2-71 E35R): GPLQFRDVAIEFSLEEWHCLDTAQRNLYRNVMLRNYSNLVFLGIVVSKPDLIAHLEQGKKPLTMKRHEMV

- Kd: 71.8 nM
B1: m11; m9 KAP1:R311E; ZNF93 KRAB:E35R (protein)
chain: MAASAAAASAAAASAASGSPGPGEGSAGGEKRSTAPSAAASASASAAASSPAGGGAEALELLEHCGVCRERLRPEREPRLLPCLHSACSACLGPAAPAAANSSGDGGAAGDGTVVDCPVCKQQCFSKDIVENYFMRDSGSKAATDAQDANQCCTSCEDNAPATSYCVECSEPLCETCVEAHQRVKYTKDHTVRSTGPAKSRDGERTVYCNVHKHEPLVLFCESCDTLTCRDCQLNAHKDHQYQFLEDAVRNQRKLLASLVKRLGDKHATLQKSTKEVRSSIRQVSDVQKRVQVDVKMAILQIMKELNKRGEVLVNDAQKVTEGQQERLERQHWTMTKIQKHQEHILRFASWALESDNNTALLLSKKLIYFQLHRALKMIVDPVEPHGEMKFQWDLNAWTKSAEAFGKIVAERPGTNSTGPAPMAPPRAPGPLSKQGSGSSQPMEVQEGYGFGSGDDPYSSAEPHVSGVKRSRSGEGEVSGLMRKVPRVSLERLDLDLTADSQPPVFKVFPGSTTEDYNLIVIERGAAAAATGQPGTAPAGTPGAPPLAGMAIVKEEETEAAIGAPPTATEGPETKPVLMALAEGPGAEGPRLASPSGSTSSGLEVVAPEGTSAPGGGPGTLDDSATICRVCQKPGDLVMCNQCEFCFHLDCHLPALQDVPGEEWSCSLCHVLPDLKEEDGSLSLDGADSTGVVAKLSPANQRKCERVLLALFCHEPCRPLHQLATDSTFSLDQPGGTLDLTLIRARLQEKLSPPYSSPQEFAQDVGRMFKQFNKLTEDKADVQSIIGLQRFFETRMNEAFGDTKFSAVLVEPPPMSLPGAGLSSQELSGGPGDGP
